Measured values reported in patent US7148193B2, “Compounds that bind to growth hormone receptor” (Antyra, Inc., priority 1997, dated 2006).
Changes are numbered by the printed parent chain. “And” between values parts separate entries of the source, which are not always exact repeats. Identical values can stand only once. Like-named read-outs stand apart in the source and are kept apart here.

Legend:
rGHBP [1] = biological target: T1, rGHBP (Rattus norvegicus, UniProt P16310); assay: Phage ELISA binding and competition on rGHBP coated wells; details: ELISA signal
T1 construct: 1–48 of GHBP; The 3′ oligo used for this reaction encoded the mutation L43R (CTG→AGA); The second PCR reaction amplified the DNA encoding amino acids 38–260; 6xHis; made in house
T1 sequence (P16310 19-278 isoform P16310-2): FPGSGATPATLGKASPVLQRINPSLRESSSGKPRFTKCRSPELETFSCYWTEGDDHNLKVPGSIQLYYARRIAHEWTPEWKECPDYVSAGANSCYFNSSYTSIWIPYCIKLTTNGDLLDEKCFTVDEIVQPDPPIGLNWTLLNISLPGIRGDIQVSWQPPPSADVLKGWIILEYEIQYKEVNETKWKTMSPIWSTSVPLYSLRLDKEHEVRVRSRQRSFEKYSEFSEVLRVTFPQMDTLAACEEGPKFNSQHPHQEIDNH
Procedure: For analysis of individual clones, colonies were picked and phage prepared as described above. Microtiter wells were coated and blocked as described above. Wells were coated with either rGHBP or a control IgG MAb. Phage resuspended in MPBS were added to duplicate wells (100 μl/well) and incubated at room temperature for 1 hr. The phage solution was then removed, and the wells were washed three times with PBS at room temperature. Anti-M13 antibody conjugated to horseradish peroxidase (Pharmacia Biotech) was diluted 1:3000 in MPBS and added to each well (100 μl/well). Incubation was for another hour at room temperature, followed by PBS washes as described. Color was developed by addition of ABTS solution (100 μl/well; Boehringer). Color development was stopped by adjusting each well to 0.5% SDS. Plates were analyzed at 405 nm using a SpectraMax 340 plate reader (Molecular Devices) and SoftMax Pro software. Data points were averaged after subtraction of appropriate blanks. A clone was considered “positive” if the A405 of the well was >2-fold over background. […]
These clones were next analyzed for binding to the receptor's active sites (FIG. 2B). Competitions of phage binding were done both with the cognate ligand (i.e., GH) and with a specific target-neutralizing MAb 2C3 (Wang, B. S., et al. Mol. Cellular Endocrinology, vol. 116, p. 223–226, 1996).
(§1) Clones were tested for the presence of E-tag and binding to ‘hu’ GHBP, rGHBP, or BSA-coated wells. Those having specific GHBP binding (i.e., at least 2 fold greater binding to the GHBP than BSA) and with an E-tag positive signal were subjected to DNA sequencing. Three different clones were isolated and tested a second time against GHBP plus and minus GH (1 μM) or BSA (1 μM) coated wells as described. In these tests, huGH was used as competitor with ‘hu’ GHBP coated wells and bovineGH was used as a competitor with rat GHBP coated wells. […] The following open reading frame insertion including the DYKD (SEQ ID NO:79) amino terminal tag and up to the C-terminal E-tag was obtained for these clones; and is shown in Table III: […]

rGHBP [2] = biological target: T1, rGHBP; assay: Time-resolved fluorometric detection (TRFD) of specific bLigand binding to rGHBP and its competition; details: for IC50: competitor added 1 hr before bLigand
Procedure: For this invention, saEu forms a ternary complex with bP and rGHBP (i.e., the rGHBP:bP:saEu complex). As described herein, the TRFD assay is performed using biotinylated GH (bGH) as bLigand. Biotinylated H5-mutant peptides bP#447 (SEQ ID NO:11) and bP#418 (SEQ ID NO:12) are also used as bLigand (see below). The TRFD assay described herein faithfully reports the competition of ligand binding to the active site of rGHR. To perform the TRFD assays, soluble rGHBP is attached to the surface of microtiter wells, then incubated with bP. Unbound bP is than washed away and (sa)Eu is added to complex with receptor bound bP. The rGHBP:bP bound (sa)Eu is then converted into its highly fluorescent state and detected by TRFD.
Wells were coated with rGHBP(100 ng/well) overnight as described. ED50 and IC50 were calculated from analysis of specific bLigand binding to rGHBP. Competitors were added 1 hr prior to addition of bLigand as described.
rGHBP (50–200 μg/ml in 50 mM NaHCO3) was coated onto low-fluorescence MaxiSorp (Nunc) plates (100 μl/well) overnight at 4° C. The plates were blocked with PBS containing 2% non-fat milk and 0.05% BSA for 2 hr at room temperature, followed by three PBS washes. For competitions, serial dilutions of unlabelled growth hormone (0.1 nM-100 nM) or MAb 2C3 (0.67–67 nM) were added to the plates (100 μl/well) and incubated at room temperature for 1–2 hr. Biotinylated peptide or biotinylated GH (10× concentrations) were incubated in blocking buffer for 30 min to decrease non-specific binding. Ten microliters of the 10× concentrated material was added to the plates and incubated at room temperature for 1 hr to overnight.
The plates were then washed five times with Tris-buffered saline (pH 7.5) containing 0.1% Tween-20 (TTBS). To each well, 100 μl of europium-labeled streptavidin in DELFIA assay buffer (100 mM Tris-HCl, pH 7.8; 150 mM NaCl; 0.5% BSA; 0.05% bovine Ig; 0.05% NaN3; 0.01% Tween-20) was added and incubated for 1.5 hr at room temperature. The plates were then washed five times with TTBS and tapped dry. Subsequently, 100 μl of DELFIA enhancement solution (100 mM acetone-potassium hydrogen phthalate, pH 3.2; 15 mM 2-naphtyltrifluoroacetate; […] tri(n-octyl)-phosphine oxide; 0.1% Triton X-100) was added to each well, and the plates were shaken for 10 min at room temperature. Fluorescence of each sample well was measured at 615 nm using a DELFIA 1234 fluorometer (EG&G Wallac). General procedure and references as described by Wallac are available in “Lanthanide labeling for time-resolved fluorometry”: Wallac publication 1244–1126-03.

[3] = biological target: T2, ‘hu’ GHBP (humanized rat GHBP) (Rattus norvegicus, UniProt P16310, L61R); assay: Phage ELISA binding and competition on 'hu' GHBP coated wells; details: ELISA signal
T2 construct: 1–48 of GHBP; The 3′ oligo used for this reaction encoded the mutation L43R (CTG→AGA); The second PCR reaction amplified the DNA encoding amino acids 38–260; 6xHis; made in house
T2 sequence (P16310 19-278 isoform P16310-2 L61R): T1 sequence (P16310 19-278 isoform P16310-2) with L43R
Procedure: For analysis of individual clones, colonies were picked and phage prepared as described above. Microtiter wells were coated and blocked as described above. Wells were coated with either rGHBP or a control IgG MAb. Phage resuspended in MPBS were added to duplicate wells (100 μl/well) and incubated at room temperature for 1 hr. The phage solution was then removed, and the wells were washed three times with PBS at room temperature. Anti-M13 antibody conjugated to horseradish peroxidase (Pharmacia Biotech) was diluted 1:3000 in MPBS and added to each well (100 μl/well). Incubation was for another hour at room temperature, followed by PBS washes as described. Color was developed by addition of ABTS solution (100 μl/well; Boehringer). Color development was stopped by adjusting each well to 0.5% SDS. Plates were analyzed at 405 nm using a SpectraMax 340 plate reader (Molecular Devices) and SoftMax Pro software. Data points were averaged after subtraction of appropriate blanks. A clone was considered “positive” if the A405 of the well was >2-fold over background.
Humanized GHBP (‘hu’ GHBP) contained the single amino acid change of rat GHBP amino acids L43 to R43, and was capable of binding human GH, as shown in FIG. 9. Direct immobilization of ‘hu’ GHBP was done as described earlier for panning of the secondary H5 library against rat GHBP and used inputs of ‘hu’ GHBP, prepared as described earlier of 100 μl per well of […] protein. Panning was performed with or without H10 peptide (SEQ ID NO:9; 30 μM) for 4 rounds, and 96 clones were picked.
as §1

‘hu’ GHBP = biological target: T3, ‘hu’ GHBP (Rattus norvegicus, UniProt P16310, L61R); assay: Species specificity of binding by ELISA and BIAcore, 'hu' GHBP; details: in words
T3 construct: 1–48 of GHBP; The 3′ oligo used for this reaction encoded the mutation L43R (CTG→AGA); The second PCR reaction amplified the DNA encoding amino acids 38–260; 6xHis; made in house
T3 sequence (P16310 19-278 isoform P16310-2 L61R): T1 sequence (P16310 19-278 isoform P16310-2) with L43R
Procedure: Wells were coated with either recombinant rGHBP or ‘hu’ GHBP (100 ng/well). Additions of H5 (SEQ ID NO:8) and H10 (SEQ ID NOS:9, 80, and 81) phage (10^10/well) and detection were made as described. […] Streptavidin chips were coated with H5 (SEQ ID NO:8) to 1100 RU as described and rGHBP or ‘hu’ GHBP (500 μg/ml) injected as 30 μl samples.
Growth hormone receptors from different species bind human GH as well as their own GH, however human GHR only binds human or monkey GH. […] The sequence of rGHBP was altered by PCR to create a “humanized” version (‘hu’ GHBP; FIG. 9A). Partially purified ‘hu’GHBP (FIG. 9B) was tested for binding using ELISA and BIAcore analysis. […] This was confirmed by BIAcore analysis (FIG. 10B).
The biotinylated control peptide (SEQ ID NO:10) was immobilized onto one flow cell of a SA-5 (streptavidin coated) sensor chip to a final density of 700 RU. On a second flow cell, either hGH (1100 RU final density), H5WT peptide (SEQ ID NO:8; 1100 RU final density), or bGH (730 RU final density) was immobilized. GHBP (either rat or humanized) was injected at a concentration of 500 μg/ml with a flow rate of 5 μl/min. Background binding to the control surface was subtracted prior to further analysis.

Molecule: 445: H5-mutant peptide SEQ ID NO:13 (DYKDLCQRLGVGWPGWLAGWCA; #445 peptide) [compound 445]
- ELISA Competition, rGHBP, +BSA (rGHBP [1]; BSA 1 μM): 0.44
- ELISA Competition, rGHBP, +bGH (rGHBP [1]; bovine GH 1 μM as competitor): 0.16
- ELISA Competition, rGHBP, none (rGHBP [1]; no competitor): 0.45
- saturation of receptors (rGHBP [2]; TRFD): could not be saturated
- ELISA Competition, ‘hu’GHBP, +BSA ([3]; BSA 1 μM): 0.11
- ELISA Competition, ‘hu’GHBP, +hGH ([3]; huGH 1 μM as competitor): 0.12
- ELISA Competition, ‘hu’GHBP, none ([3]; no competitor): 0.14

Molecule: C[S+](C)[O-] [DMSO]
- IC50 vs. bGH (rGHBP [2]; TRFD, DMSO effect on bGH binding): >>3%
- IC50 vs. bP#418 (SEQ ID NO: 12) (rGHBP [2]; TRFD, DMSO effect on bP#418 binding): >>3%
- IC50 vs. bP#447 (SEQ ID NO: 11) (rGHBP [2]; TRFD, DMSO effect on bP#447 binding): >>3%
- DMSO IC50 (rGHBP [2]; specific binding of bGH (3 nM), bP#447 (0.3 μM) and bP#418 (0.3 μM), 0 to 20% DMSO): > 15 % (v/v)

Molecule: human GH: human growth hormone
- binding to ‘hu’ GHBP (‘hu’ GHBP): bound to human GH

B1: bovine GH: bovine growth hormone (protein)
chain: AFPAMSLSGLFANAVLRAQHLHQLAADTFKEFERTYIPEGQRYSIQNTQVAFCFSETIPAPTGKNEAQQKSDLELLRISLLLIQSWLGPLQFLSRVFTNSLVFGTSDRVYEKLKDLEEGILALMRELEDGTPRAGQILKQTYDKFDTNMRSDDALLKNYGLLSCFRKDLHKTETYLRVMKCRRFGEASCAF
- binding to ‘hu’ GHBP (‘hu’ GHBP): failed to bind

B2: GH: non-biotinylated growth hormone, the cognate ligand of GHBP (protein, UniProt P01244 27-216, looked up)
Somatotropin: FPAMPLSSLFANAVLRAQHLHQLAADTYKEFERAYIPEGQRYSIQNAQAAFCFSETIPAPTGKEEAQQRTDMELLRFSLLLIQSWLGPVQFLSRIFTNSLMFGTSDRVYEKLKDLEEGIQALMQELEDGSPRIGQILKQTYDKFDANMRSDDALLKNYGLLSCFKKDLHKAETYLRVMKCRRFAESSCAF
- IC50 (rGHBP [2]; TRFD, competition of bGH (2 nM) binding, read-out: IC50 vs. bGH): 5 nM
- IC50 (rGHBP [2]; TRFD, competition of bP#418 (300 nM) binding, read-out: IC50 vs. bP#418 (SEQ ID NO: 12)): 2 nM
- IC50 (rGHBP [2]; TRFD, competition of bP#447 (300 nM) binding, read-out: IC50 vs. bP#447 (SEQ ID NO: 11)): 0.4 nM

B3: rat GH: rat growth hormone (protein, UniProt P01244 27-216, looked up)
Somatotropin: B2 Somatotropin
- binding to ‘hu’ GHBP (‘hu’ GHBP): failed to bind

B4: bGH: biotinylated GH used as bLigand in the TRFD assay (protein, UniProt P01244 27-216, looked up)
Somatotropin: B2 Somatotropin
modifications: biotin
notes: biotinylated GH used as bLigand in the TRFD assay
- EC50 (rGHBP [2]; TRFD, wells coated with rGHBP 100 ng/well, read-out: ED50 (half-maximum specific binding)): ~20 nM and 20 nM
